Here are results for six substances from publication PMC3691886.

The target in test [1] is bovine α-chymotrypsin (bovine). The test is described as follows: enzyme inhibition progress curves; pseudo-first-order conditions, 4 h at 25°C, 5-600 nM inhibitor, 200 μM substrate, 0.5 nM bovine α-chymotrypsin.
The target in test [2] is recombinant α1-antitrypsin, M allele with the C232S mutation (AT_(C232S)) (UniProt P01009). The test is described as follows: FRET or BRET; heat-induced polymerization at 60°C; 0.1 mg/ml protein in 10 mM Na2HPO4/NaH2PO4, 0.1 M NaCl, 0.1% PEG8K, pH 7.4; 2-8 μM ATTO-550-Ni-NTA and ATTO-647N-Ni-NTA on the His tag; apparent rate, corrected to zero dye; monomer to polymer. Background: Bioluminescence resonance energy transfer reports proximity on the nanometre scale.

Test [3] has as its target bovine α-chymotrypsin (bovine).
The target of test [4] is recombinant α1-antitrypsin, M allele with the C232S mutation (AT_(C232S)) (UniProt P01009). The test is described as follows: FRET or BRET; heat-induced polymerization at 55°C; 0.1 mg/ml protein in 10 mM Na2HPO4/NaH2PO4, 0.1 M NaCl, 0.1% PEG8K, pH 7.4; 2-8 μM ATTO-550-Ni-NTA and ATTO-647N-Ni-NTA on the His tag; apparent rate, corrected to zero dye; monomer to polymer.
Test [5] has the same target. The test is described as follows: FRET or BRET; heat-induced polymerization at 50°C; 0.1 mg/ml protein in 10 mM Na2HPO4/NaH2PO4, 0.1 M NaCl, 0.1% PEG8K, pH 7.4; 2-8 μM ATTO-550-Ni-NTA and ATTO-647N-Ni-NTA on the His tag; apparent rate, corrected to zero dye; monomer to polymer.
Test [6] deals with α1-antitrypsin reactive loop mutant P2P1′ (P357D, S359D) on the C232S background (UniProt P01009). The test is described as follows: FRET or BRET; heat-induced polymerization at 60°C; 0.1 mg/ml protein in 10 mM Na2HPO4/NaH2PO4, 0.1 M NaCl, 0.1% PEG8K, pH 7.4; 2-8 μM ATTO-550-Ni-NTA and ATTO-647N-Ni-NTA on the His tag; apparent rate, corrected to zero dye; monomer to polymer.
Test [7] has the same target. The test is described as follows: FRET or BRET; heat-induced polymerization at 55°C; 0.1 mg/ml protein in 10 mM Na2HPO4/NaH2PO4, 0.1 M NaCl, 0.1% PEG8K, pH 7.4; 2-8 μM ATTO-550-Ni-NTA and ATTO-647N-Ni-NTA on the His tag; apparent rate, corrected to zero dye; monomer to polymer.
Test [8] has the same target. The test is described as follows: FRET or BRET; heat-induced polymerization at 50°C; 0.1 mg/ml protein in 10 mM Na2HPO4/NaH2PO4, 0.1 M NaCl, 0.1% PEG8K, pH 7.4; 2-8 μM ATTO-550-Ni-NTA and ATTO-647N-Ni-NTA on the His tag; apparent rate, corrected to zero dye; monomer to polymer.
Test [9] has as its target α1-antitrypsin reactive loop mutant P4 (A355D) on the C232S background (UniProt P01009). The test is described as follows: FRET or BRET; heat-induced polymerization at 60°C; 0.1 mg/ml protein in 10 mM Na2HPO4/NaH2PO4, 0.1 M NaCl, 0.1% PEG8K, pH 7.4; 2-8 μM ATTO-550-Ni-NTA and ATTO-647N-Ni-NTA on the His tag; apparent rate, corrected to zero dye; monomer to polymer.
Test [10] shares this target. The test is described as follows: FRET or BRET; heat-induced polymerization at 55°C; 0.1 mg/ml protein in 10 mM Na2HPO4/NaH2PO4, 0.1 M NaCl, 0.1% PEG8K, pH 7.4; 2-8 μM ATTO-550-Ni-NTA and ATTO-647N-Ni-NTA on the His tag; apparent rate, corrected to zero dye; monomer to polymer.
The target is the same in test [11]. The test is described as follows: FRET or BRET; heat-induced polymerization at 50°C; 0.1 mg/ml protein in 10 mM Na2HPO4/NaH2PO4, 0.1 M NaCl, 0.1% PEG8K, pH 7.4; 2-8 μM ATTO-550-Ni-NTA and ATTO-647N-Ni-NTA on the His tag; apparent rate, corrected to zero dye; monomer to polymer.
In test [12] the target is α1-antitrypsin reactive loop mutant P6 (L353D) on the C232S background (UniProt P01009). The test is described as follows: FRET or BRET; heat-induced polymerization at 60°C; 0.1 mg/ml protein in 10 mM Na2HPO4/NaH2PO4, 0.1 M NaCl, 0.1% PEG8K, pH 7.4; 2-8 μM ATTO-550-Ni-NTA and ATTO-647N-Ni-NTA on the His tag; apparent rate, corrected to zero dye; monomer to polymer.
For test [13] the target is unchanged. The test is described as follows: FRET or BRET; heat-induced polymerization at 55°C; 0.1 mg/ml protein in 10 mM Na2HPO4/NaH2PO4, 0.1 M NaCl, 0.1% PEG8K, pH 7.4; 2-8 μM ATTO-550-Ni-NTA and ATTO-647N-Ni-NTA on the His tag; apparent rate, corrected to zero dye; monomer to polymer.
For test [14] the target is unchanged. The test is described as follows: FRET or BRET; heat-induced polymerization at 50°C; 0.1 mg/ml protein in 10 mM Na2HPO4/NaH2PO4, 0.1 M NaCl, 0.1% PEG8K, pH 7.4; 2-8 μM ATTO-550-Ni-NTA and ATTO-647N-Ni-NTA on the His tag; apparent rate, corrected to zero dye; monomer to polymer.
The target in test [15] is α1-antitrypsin reactive loop mutant P6P4 (L353D, A355D) on the C232S background (UniProt P01009). The test is described as follows: FRET or BRET; heat-induced polymerization at 60°C; 0.1 mg/ml protein in 10 mM Na2HPO4/NaH2PO4, 0.1 M NaCl, 0.1% PEG8K, pH 7.4; 2-8 μM ATTO-550-Ni-NTA and ATTO-647N-Ni-NTA on the His tag; apparent rate, corrected to zero dye; monomer to polymer.

The target is the same in test [16]. The test is described as follows: FRET or BRET; heat-induced polymerization at 55°C; 0.1 mg/ml protein in 10 mM Na2HPO4/NaH2PO4, 0.1 M NaCl, 0.1% PEG8K, pH 7.4; 2-8 μM ATTO-550-Ni-NTA and ATTO-647N-Ni-NTA on the His tag; apparent rate, corrected to zero dye; monomer to polymer.
Test [17] shares this target. The test is described as follows: FRET or BRET; heat-induced polymerization at 50°C; 0.1 mg/ml protein in 10 mM Na2HPO4/NaH2PO4, 0.1 M NaCl, 0.1% PEG8K, pH 7.4; 2-8 μM ATTO-550-Ni-NTA and ATTO-647N-Ni-NTA on the His tag; apparent rate, corrected to zero dye; monomer to polymer.
The target of test [18] is α1-antitrypsin reactive loop mutant P10P8 (G349D, M351D) on the C232S background (UniProt P01009). The test is described as follows: FRET or BRET; heat-induced polymerization at 60°C; 0.1 mg/ml protein in 10 mM Na2HPO4/NaH2PO4, 0.1 M NaCl, 0.1% PEG8K, pH 7.4; 2-8 μM ATTO-550-Ni-NTA and ATTO-647N-Ni-NTA on the His tag; apparent rate, corrected to zero dye; monomer to polymer.

Test [19] has the same target. The test is described as follows: FRET or BRET; heat-induced polymerization at 55°C; 0.1 mg/ml protein in 10 mM Na2HPO4/NaH2PO4, 0.1 M NaCl, 0.1% PEG8K, pH 7.4; 2-8 μM ATTO-550-Ni-NTA and ATTO-647N-Ni-NTA on the His tag; apparent rate, corrected to zero dye; monomer to polymer.
The target is the same in test [20]. The test is described as follows: FRET or BRET; heat-induced polymerization at 50°C; 0.1 mg/ml protein in 10 mM Na2HPO4/NaH2PO4, 0.1 M NaCl, 0.1% PEG8K, pH 7.4; 2-8 μM ATTO-550-Ni-NTA and ATTO-647N-Ni-NTA on the His tag; apparent rate, corrected to zero dye; monomer to polymer.

The substance “recombinant α1-antitrypsin, M allele with the C232S mutation (AT_(C232S)) (from UniProt P01009 26-418) (natural protein)” returned a kass•SI in [1] of 1.5e+06. For the same substance, the kon (as a rule, a measure of how fast the partners come together) in [1] was determined as 1.5e+06 M⁻¹ s⁻¹. For the same substance, the figures for the k (app,fr) (apparent rate of polymerization) in test [2], in test [4] and in [5] were 0.01 s⁻¹, 0.0016 s⁻¹ and 0.00021 s⁻¹, respectively. Besides, the SI (stoichiometry of inhibition): residual activity of 0.5 μM bovine α-chymotrypsin after 30 min with inhibitor in test [3] stood at 1.1.

Take “α1-antitrypsin reactive loop mutant P2P1′ (P357D, S359D) on the C232S background (from UniProt P01009 26-418) (natural protein)”: the k (app,fr) (apparent rate of polymerization) in test [6] was found to be 0.012 s⁻¹; in [7] it was 0.0017 s⁻¹; in test [8] it was 0.00022 s⁻¹. The substance also yielded an SI (stoichiometry of inhibition): residual activity of 0.5 μM bovine α-chymotrypsin after 30 min with inhibitor in [3] of 100.

For the substance “α1-antitrypsin reactive loop mutant P4 (A355D) on the C232S background (from UniProt P01009 26-418) (natural protein)”, the values for the k (app,fr) (apparent rate of polymerization) in test [9], in test [10] and in [11] were 0.078 s⁻¹, 0.0011 s⁻¹ and 0.00011 s⁻¹, respectively.

With “α1-antitrypsin reactive loop mutant P6 (L353D) on the C232S background (from UniProt P01009 26-418) (natural protein)”, the k (app,fr) (apparent rate of polymerization) in test [12] came to 0.01 s⁻¹; in test [13] it was 0.0007 s⁻¹; in test [14] it was 3.7e-05 s⁻¹.

As to “α1-antitrypsin reactive loop mutant P6P4 (L353D, A355D) on the C232S background (from UniProt P01009 26-418) (natural protein)”, the values for the k (app,fr) (apparent rate of polymerization) in test [15], in test [16] and in test [17] were 0.0055 s⁻¹, 0.00044 s⁻¹ and 9.8e-06 s⁻¹, respectively. For the same substance, in [3], the SI (stoichiometry of inhibition): residual activity of 0.5 μM bovine α-chymotrypsin after 30 min with inhibitor was found to be 89.

In turn, “α1-antitrypsin reactive loop mutant P10P8 (G349D, M351D) on the C232S background (from UniProt P01009 26-418) (natural protein)” displayed a kass•SI in [1] of 570000. Further, in test [1], the kon stood at 120000 M⁻¹ s⁻¹. In addition, the k (app,fr) (apparent rate of polymerization) was 0.0028 s⁻¹ in test [18], 0.00066 s⁻¹ in [19] and 7.2e-05 s⁻¹ in test [20]. The same substance came in with an SI (stoichiometry of inhibition): residual activity of 0.5 μM bovine α-chymotrypsin after 30 min with inhibitor in test [3] of 4.56.
